Measured values reported in publication PMC5844954, “Insc:LGN tetramers promote asymmetric divisions of mammary stem cells” (Nature Communications, 2018).

T1: human Insc of the Insc:LGN:Gαi complex (human, UniProt Q1MX18-2 1-532)
T1 construct: human Inscuteable; Same chain as the Insc chain of m16
T1 sequence (looked up): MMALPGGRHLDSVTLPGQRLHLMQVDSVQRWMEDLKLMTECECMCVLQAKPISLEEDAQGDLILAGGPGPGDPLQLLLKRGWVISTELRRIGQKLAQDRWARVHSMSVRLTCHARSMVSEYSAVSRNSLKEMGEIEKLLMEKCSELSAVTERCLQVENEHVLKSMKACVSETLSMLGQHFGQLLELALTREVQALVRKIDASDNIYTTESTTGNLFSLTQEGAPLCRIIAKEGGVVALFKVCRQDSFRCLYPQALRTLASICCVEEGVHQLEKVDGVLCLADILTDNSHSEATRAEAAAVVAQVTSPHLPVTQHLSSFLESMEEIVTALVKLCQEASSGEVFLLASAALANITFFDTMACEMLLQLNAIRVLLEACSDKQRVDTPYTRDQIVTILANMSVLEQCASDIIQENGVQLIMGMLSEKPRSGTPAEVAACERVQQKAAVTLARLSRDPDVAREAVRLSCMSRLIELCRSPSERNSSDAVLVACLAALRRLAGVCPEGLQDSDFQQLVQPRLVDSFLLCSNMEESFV

T2: Drosophila LGN (Pins) TPR domain, residues 25-406 (Drosophila, UniProt Q9VB22 25-406)
T2 construct: Pins (fly orthologue of LGN), Drosophila, residues 25-406 (TPR domain); Monomeric in isolation; two copies stand in the 2:2 tetramer with Insc^ASYM; also called dLGN^TPR; dLGN^25–406
T2 sequence (looked up): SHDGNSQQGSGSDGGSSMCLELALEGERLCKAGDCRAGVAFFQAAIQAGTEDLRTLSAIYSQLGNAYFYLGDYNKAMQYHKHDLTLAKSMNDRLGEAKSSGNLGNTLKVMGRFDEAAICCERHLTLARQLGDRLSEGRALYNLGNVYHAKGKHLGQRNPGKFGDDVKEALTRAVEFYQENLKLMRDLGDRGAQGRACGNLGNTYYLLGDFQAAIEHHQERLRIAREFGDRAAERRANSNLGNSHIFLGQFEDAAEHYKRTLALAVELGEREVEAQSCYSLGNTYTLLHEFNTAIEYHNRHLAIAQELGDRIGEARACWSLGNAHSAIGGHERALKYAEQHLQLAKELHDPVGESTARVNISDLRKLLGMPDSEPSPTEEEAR


Legend:
[1] = biological target: T1, human Insc of the Insc:LGN:Gαi complex; assay: SEC; Par3^PDZ123 mixed in molar excess with purified Insc:LGN:Gαi, SDS-PAGE of fractions; conditions: both partners purified
[2] = biological target: T2, Drosophila LGN (Pins) TPR domain, …; assay: SEC-MALS; static light scattering of the dLGN^TPR:Insc^ASYM complex eluting from a size-exclusion column; conditions: both partners purified
[3] = biological target: the molecule itself; assay: crystal structure; dLGN 25-406:Insc 283-623 complex, 3.4 Å, space group P212121, four tetramers in the asymmetric unit

Binder	binding result [1]	stoichiometry N [2]	binding result [3]
human Par3^PDZ123 (residues 269-685), GST-tag removed (domain or fragment, UniProt Q8TEW0 269-685, looked up, human Par3, residues 269-685 (the three PDZ domains), Uniprot Q8TEW0) DDMVKLVEVPNDGGPLGIHVVPFSARGGRTLGLLVKRLEKGGKAEHENLFRENDCIVRINDGDLRNRRFEQAQHMFRQAMRTPIIWFHVVPAANKEQYEQLSQSEKNNYYSSRFSPDSQYIDNRSVNSAGLHTVQRAPRLNHPPEQIDSHSRLPHSAHPSGKPPSAPASAPQNVFSTTVSSGYNTKKIGKRLNIQLKKGTEGLGFSITSRDVTIGGSAPIYVKNILPRGAAIQDGRLKAGDRLIEVNGVDLVGKSQEEVVSLLRSTKMEGTVSLLVFRQEDAFHPRELNAEPSQMQIPKETKAEDEDIVLTPDGTREFLTFEVPLNDSGSAGLGVSVKGNRSKENHADLGIFVKSIINGGAASKDGRLRVNDQLIAVNGESLLGKTNQDAMETLRRSMSTEGNKRGMIQLIVARRIS	binds		
Drosophila Inscuteable asymmetric domain, residues 283-623 (domain or fragment, UniProt Q24367 283-623, looked up, Inscuteable, Drosophila, residues 283-623 (asymmetric domain: Insc^PEPT stretch, four-helix bundle, three Armadillo repeats); Two copies stand in the 2:2 tetramer with dLGN^TPR; also called Insc^ASYM; Insc-A^ASYM) SLRFTASTSTPKSGSKIAKRGKKHPEPVASWMSEQRWAGEPEVMCTLQHKSIAQEAYKNYTITTSAVCKLVRQLQQQALSLQVHFERSERVLSGLQASSLPEALAGATQLLSHLDDFTATLERRGVFFNDAKIERRRYEQHLEQIRTVSKDTRYSLERQHYINLESLLDDVQLLKRHTLITLRLIFERLVRVLVISIEQSQCDLLLRANINMVATLMNIDYDGFRSLSDAFVQNEAVRTLLVVVLDHKQSSVRALALRALATLCCAPQAINQLGSCGGIEIVRDILQVESAGERGAIERREAVSLLAQITAAWHGSEHRVPGLRDCAESLVAGLAALLQPE		1 Insc per dLGN (2:2)	binds
